In patent US20160008427A1 (Genentech, published 2016):

Key:
C3b [1] = target: T1, C3b (human, UniProt P01024 23-667; P01024 749-1663); test: competitive ELISA, column 'Mu Ic50 (nM)'; format of paragraph 183: variant in solution competes with coated huCRIg(L)-LFH for C3b
T1 construct: also called soluble C3b; human C3b
Experimental: (§1) huCRIg(L)-LFH was diluted to 2μg/mL in PBS, pH 7.4, and coated onto Maxisorp 384-well flat bottom plates (Nunc, Neptune, NJ) by incubating overnight (16-18 hr) at 4° C. (25 ul/well). The plates were washed 3 times in Wash Buffer (PBS, pH7.4, 0.05% Tween 20), and 50 ul/well of Block Buffer (PBS, pH 7.4, 0.5% BSA) was added to each well. The plates were allowed to block for 1-3hr; this and all subsequent incubations were performed on an orbital shaker at room temperature. During the blocking step, C3b (purified at Genentech) was diluted to 20 nM in Assay Buffer (PBS pH7.4, 0.5% BSA, 0.05% Tween-20), and the mutCRlg-huFc molecules were serially diluted in Assay Buffer, over a concentration range of 20,000—0.34 nM. The C3b and mutCRlg-huFc molecules were then mixed 1:1 and allowed to pre-incubate for 0.5-1 hr. The blocked plates were washed three times (as described above), and the C3b:mutCRlg-huFc complexes were added to the reaction plates (25 ul/well). After a 1-2 hr incubation, The ELISA plates were washed three times, (as described above) and plate-bound C3b was detected by the addition of an anti-human C3b antibody (clone 5F202, US Biological, Swampscott, Mass.; 600 ng/mL, 25 ul/well). The plates were incubated for 1-2 hr and washed as described above. HRP-conjugated anti-murine Fc IgG (Jackson ImmunoResearch, West Grove, Pa.) diluted 1:2,000 was then added (25 ul/well), and the plates were incubated for 1-2 hr. After a final wash, 25 ul/well of TMB substrate (Kirkegaard & Perry Laboratories, Gaithersburg, Md.) was added to the ELISA plates. Color development was stopped after approximately 8min by adding 25 ul/well 1.0M phosphoric acid. Absorbance at 450 nm and 650 nm was determined using a SpectraMax 250 microtiter plate reader (Molecular Devices, Sunnyvale, Calif.).

C3b [2] = target: T1, C3b; test: competitive ELISA (competitive displacement of C3b); format of paragraph 183: variant in solution competes with coated huCRIg(L)-LFH for C3b
Experimental: as §1, with “HRP-conjugated anti-murine Fc IgG (Jackson ImmunoResearch, West Grove, Pa.) diluted 1:2,000 was then added (25 ul/well), and the plates were incubated for 1-2 hr. After a final wash, 25 ul/well of TMB substrate (Kirkegaard & Perry Laboratories, Gaithersburg, Md.) was added to the ELISA plates. Color development was stopped after approximately 8min by adding 25 ul/well 1.0M phosphoric acid.” left out

T1 sequence (P01024 23-667 limits assumed, chain 1 of 2): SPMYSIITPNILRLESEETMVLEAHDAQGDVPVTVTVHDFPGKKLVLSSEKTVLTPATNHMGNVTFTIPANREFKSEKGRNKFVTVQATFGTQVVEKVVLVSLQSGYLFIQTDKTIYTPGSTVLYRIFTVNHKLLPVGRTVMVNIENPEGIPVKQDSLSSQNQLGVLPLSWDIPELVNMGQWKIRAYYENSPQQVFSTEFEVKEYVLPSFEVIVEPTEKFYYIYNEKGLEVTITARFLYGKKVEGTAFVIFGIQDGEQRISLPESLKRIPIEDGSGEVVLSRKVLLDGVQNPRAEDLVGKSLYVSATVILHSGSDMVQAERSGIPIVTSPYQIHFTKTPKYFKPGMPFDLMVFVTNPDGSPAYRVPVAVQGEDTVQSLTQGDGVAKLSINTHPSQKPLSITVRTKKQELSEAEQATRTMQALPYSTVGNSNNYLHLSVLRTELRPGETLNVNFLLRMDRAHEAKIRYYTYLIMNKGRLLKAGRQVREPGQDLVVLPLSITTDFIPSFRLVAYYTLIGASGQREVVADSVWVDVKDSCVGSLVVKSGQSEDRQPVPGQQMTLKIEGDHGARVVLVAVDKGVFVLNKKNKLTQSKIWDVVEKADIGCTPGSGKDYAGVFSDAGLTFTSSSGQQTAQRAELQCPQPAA
T1 sequence (P01024 749-1663 limits assumed, chain 2 of 2): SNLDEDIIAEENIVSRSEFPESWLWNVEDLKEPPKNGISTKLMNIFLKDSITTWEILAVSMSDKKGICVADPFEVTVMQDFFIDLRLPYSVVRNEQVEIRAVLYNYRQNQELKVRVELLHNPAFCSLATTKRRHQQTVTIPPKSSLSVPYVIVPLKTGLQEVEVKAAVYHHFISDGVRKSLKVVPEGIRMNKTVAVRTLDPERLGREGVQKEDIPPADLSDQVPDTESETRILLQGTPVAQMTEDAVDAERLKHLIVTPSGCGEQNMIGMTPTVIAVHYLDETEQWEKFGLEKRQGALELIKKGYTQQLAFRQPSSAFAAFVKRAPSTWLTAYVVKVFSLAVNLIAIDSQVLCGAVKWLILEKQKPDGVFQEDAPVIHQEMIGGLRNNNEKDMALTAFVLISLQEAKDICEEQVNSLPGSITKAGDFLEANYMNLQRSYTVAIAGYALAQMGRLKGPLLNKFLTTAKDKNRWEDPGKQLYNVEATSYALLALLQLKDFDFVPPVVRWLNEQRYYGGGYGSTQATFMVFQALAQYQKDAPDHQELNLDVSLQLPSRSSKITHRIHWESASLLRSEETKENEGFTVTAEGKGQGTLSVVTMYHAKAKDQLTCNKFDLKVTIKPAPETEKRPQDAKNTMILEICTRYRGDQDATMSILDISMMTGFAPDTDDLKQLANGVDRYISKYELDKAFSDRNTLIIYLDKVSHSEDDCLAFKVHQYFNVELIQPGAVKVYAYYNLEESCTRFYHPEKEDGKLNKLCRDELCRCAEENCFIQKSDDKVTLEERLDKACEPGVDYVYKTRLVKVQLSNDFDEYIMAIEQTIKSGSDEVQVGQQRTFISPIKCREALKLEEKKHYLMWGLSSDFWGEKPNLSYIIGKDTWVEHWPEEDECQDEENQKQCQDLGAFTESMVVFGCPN

Binder | IC50 (C3b [1]) [µM] | IC50 (read off the curve) (C3b [2]) [µM]
YL24 (receptor, also called M86Y/G42D/D44H/P45F) CRIg variant: RPILEVPESVTGPWKGDVNLPCTYDPLQGYTQVLVKWLVQRDSHFVTIFLRDSSGDHIQQAKYQGRLHVSHKVPGDVSLQLSTLEYDDRSHYTCEVTWQTPDGNQVVRDKITELRVQKHSSKLLKTKTEAPTTMTYPLKATSTVKQSWDWTTDMDGYLGETSAGPGKSLP | 0.031 | 
IRL55 or IRL56 (last digit not sure) (receptor, row between IRL52 and IRL59; also called Q60I-Q64R/K110N) CRIg variant: RPILEVPESVTGPWKGDVNLPCTYDPLQGYTQVLVKWLVQRGSDPVTIFLRDSSGDHIQIAKYRGRLHVSHKVPGDVSLQLSTLEMDDRSHYTCEVTWQTPDGNQVVRDNITELRVQKHSSKLLKTKTEAPTTMTYPLKATSTVKQSWDWTTDMDGYLGETSAGPGKSLP | 0.033 | 
IRL11 (receptor, also called Q60I-Q64R/E8Y) CRIg variant: RPILEVPYSVTGPWKGDVNLPCTYDPLQGYTQVLVKWLVQRGSDPVTIFLRDSSGDHIQIAKYRGRLHVSHKVPGDVSLQLSTLEMDDRSHYTCEVTWQTPDGNQVVRDKITELRVQKHSSKLLKTKTEAPTTMTYPLKATSTVKQSWDWTTDMDGYLGETSAGPGK | 0.034 | 
L24 (receptor, also called G42D/D44H/P45F (printed G42D/D44/H/P45F)) CRIg variant: RPILEVPESVTGPWKGDVNLPCTYDPLQGYTQVLVKWLVQRDSHFVTIFLRDSSGDHIQQAKYQGRLHVSHKVPGDVSLQLSTLEMDDRSHYTCEVTWQTPDGNQVVRDKITELRVQKHSSKLLKTKTEAPTTMTYPLKATSTVKQSWDWTTDMDGYLGETSAGPGK | 0.238 | 
IRL21 (receptor, also called Q60I-Q64R/G42D) CRIg variant: RPILEVPESVTGPWKGDVNLPCTYDPLQGYTQVLVKWLVQRDSDPVTIFLRDSSGDHIQIAKYRGRLHVSHKVPGDVSLQLSTLEMDDRSHYTCEVTWQTPDGNQVVRDKITELRVQKHSSKLLKTKTEAPTTMTYPLKATSTVKQSWDWTTDMDGYLGETSAGPGK | 0.029 | 
RL59 (receptor, also called Q64R/Q105R/K110N) CRIg variant: RPILEVPESVTGPWKGDVNLPCTYDPLQGYTQVLVKWLVQRGSDPVTIFLRDSSGDHIQQAKYRGRLHVSHKVPGDVSLQLSTLEMDDRSHYTCEVTWQTPDGNRVVRDNITELRVQKHSSKLLKTKTEAPTTMTYPLKATSTVKQSWDWTTDMDGYLGETSAGPGK | 0.065 | 
IRL23 (receptor, also called Q60I-Q64R/P45F) CRIg variant: RPILEVPESVTGPWKGDVNLPCTYDPLQGYTQVLVKWLVQRGSDFVTIFLRDSSGDHIQIAKYRGRLHVSHKVPGDVSLQLSTLEMDDRSHYTCEVTWQTPDGNQVVRDKITELRVQKHSSKLLKTKTEAPTTMTYPLKATSTVKQSWDWTTDMDGYLGETSAGPGK | 0.031 | 

Binders with a lower IC50 (C3b [1]), results first:

IC50 (C3b [1]) [µM] | IC50 (read off the curve) (C3b [2]) [µM] | Binder
0.004 |  | IRL24 (receptor, the mutation string is cut off at the cell border on the sheet; also called Q60I/Q64R/G42D/D44H/P45F) CRIg variant: RPILEVPESVTGPWKGDVNLPCTYDPLQGYTQVLVKWLVQRDSHFVTIFLRDSSGDHIQIAKYRGRLHVSHKVPGDVSLQLSTLEMDDRSHYTCEVTWQTPDGNQVVRDKITELRVQKHSSKLLKTKTEAPTTMTYPLKATSTVKQSWDWTTDMDGYLGETSAGPGKSLP
0.024 |  | IRL51 (receptor, also called Q60I-Q64R/Q105R) CRIg variant: RPILEVPESVTGPWKGDVNLPCTYDPLQGYTQVLVKWLVQRGSDPVTIFLRDSSGDHIQIAKYRGRLHVSHKVPGDVSLQLSTLEMDDRSHYTCEVTWQTPDGNRVVRDKITELRVQKHSSKLLKTKTEAPTTMTYPLKATSTVKQSWDWTTDMDGYLGETSAGPGKSLP
0.018 |  | YL59 (receptor, also called M86Y/Q105R/K110N) CRIg variant: RPILEVPESVTGPWKGDVNLPCTYDPLQGYTQVLVKWLVQRGSDPVTIFLRDSSGDHIQQAKYQGRLHVSHKVPGDVSLQLSTLEYDDRSHYTCEVTWQTPDGNRVVRDNITELRVQKHSSKLLKTKTEAPTTMTYPLKATSTVKQSWDWTTDMDGYLGETSAGPGKSLP
0.01 | ~0.01 | IRL41 (receptor, also called RIL41; RIL 41) CRIg variant: RPILEVPESVTGPWKGDVNLPCTYDPLQGYTQVLVKWLVQRGSDPVTIFLRDSSGDHIQIAKYRGRLHVSHKVPGDVSLQLSTLEYDDRSHYTCEVTWQTPDGNQVVRDKITELRVQKHSSKLLKTKTEAPTTMTYPLKATSTVKQSWDWTTDMDGYLGETSAGPGKSLP
0.022 |  | IRL52 (receptor, also called Q60I-Q64R/Q105K) CRIg variant: RPILEVPESVTGPWKGDVNLPCTYDPLQGYTQVLVKWLVQRGSDPVTIFLRDSSGDHIQIAKYRGRLHVSHKVPGDVSLQLSTLEMDDRSHYTCEVTWQTPDGNKVVRDKITELRVQKHSSKLLKTKTEAPTTMTYPLKATSTVKQSWDWTTDMDGYLGETSAGPGKSLP
